Type in all cases: biochemical
The nature of data set [1]: Oxidase activity testing against sclareol. The note with it: substrate Sclareol; Batch 2; UPLC-MS UV or MS peak areas. The method, then:
(§1) Lyophilised material of recombinant P450, ferredoxin and ferredoxin reductase proteins was made as described in Example 4 and reconstituted in high purity water to the original volume. Biocatalysis was performed with shaking incubation at 27° C. in the following conditions: 100 mM potassium phosphate pH 8.0, 5 mM MgCl2 (both present in the reconstituted enzyme preparation) and 0.1 mg/ml substrate compound such as ambroxide (Sigma-Aldrich, UK), carbamazepine (Sigma-Aldrich, UK), diclofenac (Sigma-Aldrich, UK), tivantinib (MedChemtronica, Sweden), clarithromycin (Tokyo Chemical Industry, Japan), sclareol (Sigma-Aldrich, UK), celecoxib (LC Laboratories, USA), buparvaquone (Sigma-Aldrich, UK), BIRB796 (MedChemExpress, USA), vanoxerine (CiVentiChem, USA), valsartan (Tokyo Chemical Industry, Japan), ruxolitinib (LC Laboratories, USA), perindopril (Selleckchem, USA), solifenacin (Key Organics, UK), 7-ethoxycoumarin (Tokyo Chemical Industry, Japan), tofacitinib (LC Laboratories, USA), ebastine (Key Organics, UK), efavirenz (Key Organics, UK), propanalol (Sigma-Aldrich, UK) and tolbutamide (Key Organics, UK).
(§2) Concentrations of P450, ferredoxin and ferredoxin reductase were as extracted (Example 4). Reactions were initiated by addition of 10× stock of cofactor mixture (50 mM G6P, 10 mM NADP+, 10 UN/ml G6PDH) to provide a final volume of e.g., 10 μl to 90 μl for 100 μl total reaction volumes. After 16-20 hours, reactions were extracted with an equal volume of acetonitrile, centrifuged to remove precipitated proteins and conversion assessed by UPLC-MS analysis.
(§3) UPLC Data were Obtained as Follows: • Column: Acquity UPLC BEH Shield RP18 1.7 μm 2.1 mm i.d. 50 mm length • Solvents: H2O, B: Acetonitrile, both with 0.1% Formic acid • Flow rate: 1.0 ml/min • Detector: Waters Acquity UPLC PDA (UV-Vis detection) and Waters Acquity UPLC QDA (MS)
(§4) Representative results for the % conversions of various substrates to products by enzymes with mutations at position T109 or L198 and double mutants at T109 and 1129/L198 are shown in Table 4 below.

The nature of data set [2]: Oxidase activity testing against celecoxib. The note with it: substrate Celecoxib; Batch 2. As for the experimental part: as §1, §2, §3, §4
Data set [3] can be described thus: Oxidase activity testing against buparvaquone. As to conditions: substrate Buparvaquone; Batch 2. As for the experimental part:
as §1, §2, §3, §4

Data set [4] in a line: Oxidase activity testing against BIRB796. As to conditions: substrate BIRB796; Batch 2. The method, then: as §1, §2, §3, §4
The nature of data set [5]: Oxidase activity testing against vanoxerine. As to conditions: substrate Vanoxerine; Batch 2. The method, then: as §1, §2, §3, §4
A short description of data set [6]: Oxidase activity testing against valsartan. As to conditions: substrate Valsartan; Batch 2. As for the experimental part: as §1, §2, §3, §4
A short description of data set [7]: Oxidase activity testing against ruxolitinib. As to conditions: substrate Ruxolitinib; Batch 2. As for the experimental part: as §1, §2, §3, §4
Data set [8] is described as follows: Oxidase activity testing against perindopril. As to conditions: substrate Perindopril; Batch 2. As for the experimental part: as §1, §2, §3, §4
The nature of data set [9]: Oxidase activity testing against solifenacin. The note with it: substrate Solifenacin; Batch 2. The method, then: as §1, §2, §3, §4
Data set [10] in a line: Oxidase activity testing against 7-ethoxycoumarin. The note with it: substrate 7-ethoxycoumarin; Batch 2. As for the experimental part: as §1, §2, §3, §4
Data set [11] in a line: Oxidase activity testing against tofacitinib. As to conditions: substrate Tofacitinib; Batch 2. As for the experimental part: as §1, §2, §3, §4
Data set [12] is described as follows: Oxidase activity testing against ebastine. The note with it: substrate Ebastine; Batch 2. The method, then: as §1, §2, §3, §4
Data set [13] can be described thus: Oxidase activity testing against efavirenz. As to conditions: substrate Efavirenz; Batch 2. As for the experimental part:
as §1, §2, §3, §4

Data set [14] in a line: Oxidase activity testing against clarithromycin. The note with it: for new product at 3.12 minutes (3″-O-demethylclarithromycin) from clarithromycin: chromatographic analysis, FIGS. 5 and 6; for Average % conversion: substrate Clarithromycin, Batch 2. The method, then: as §1, §2, §3, §4
A short description of data set [15]: Oxidase activity testing against propanalol. The note with it: substrate Propanalol; Batch 2. The method, then: as §1, §2, §3, §4
A short description of data set [16]: Oxidase activity testing against tolbutamide. As to conditions: substrate Tolbutamide; Batch 2. As for the experimental part:
as §1, §2, §3, §4

B1: M15: P450SeuC10 with L198T mutation, SEQ ID NO: 34 (protein)
chain: MKIGTTHLTRLRGLSMTELTDITGPAAQAETVAFPQDRTCPYHPPTGYDPLRDGRPLSRVTLYDGREVWLVTAQATARALLADPRLSTDRRRDGFPVPTPRFAAGRDRTLALLGLDDPEHHRQRRLLIPSFTLKRATAQRPWIQRIVDELLDAMIARGPVADLVSAFALPVPSMVICELLGVPYADHEFFEEQSRRLTRGPTGADTTDARDRLEAYLGDLIDAKAKEAEPGDGILDDLVHNRLRAGELDRSVLVSLAVILLVAGHETTANMISLGTYTLLQHPERLAELRADPSLLPAVVEELLRMLSIAEGLQRLALEDIEIDGITIRAGEGVLFSTSVINRDTAVYEDPDDLDFHRADRHHVAFGFGIHQCLGQNLARAELEIALGSLFTRLPGLRLAAPAEEIPFKPGDTVQGMLELPVTW
modifications: SeuC10M15
For B1, the Average % conversion in data set [1] is on record as 61%; in [2], 7.2%; in [3], 0%; in data set [4], 34.4%; in data set [5], 41%; in data set [6], 20.9%. Besides, the Average % conversion in [7] is 100%; in data set [8], 35.4%; in data set [9], 6%; in [10], 14.7%; in [11] it was 32.3%; in [12], 0.5%. For the same molecule, the Average % conversion in data set [13] is recorded as 4.3%; in data set [14] it was 0%; in data set [15] it was 0%; in data set [16] it was 28.3%. Further, the “new product at 3.12 minutes (3″-O-demethylclarithromycin) from clarithromycin” value in data set [14] was “not observed”.

B2: M31: P450SeuC10 with T109F and I259A double mutations, SEQ ID NO: 128 (protein)
chain: MKIGTTHLTRLRGLSMTELTDITGPAAQAETVAFPQDRTCPYHPPTGYDPLRDGRPLSRVTLYDGREVWLVTAQATARALLADPRLSTDRRRDGFPVPTPRFAAGRDRFLALLGLDDPEHHRQRRLLIPSFTLKRATAQRPWIQRIVDELLDAMIARGPVADLVSAFALPVPSMVICELLGVPYADHEFFEEQSRRLLRGPTGADTTDARDRLEAYLGDLIDAKAKEAEPGDGILDDLVHNRLRAGELDRSVLVSLAVALLVAGHETTANMISLGTYTLLQHPERLAELRADPSLLPAVVEELLRMLSIAEGLQRLALEDIEIDGITIRAGEGVLFSTSVINRDTAVYEDPDDLDFHRADRHHVAFGFGIHQCLGQNLARAELEIALGSLFTRLPGLRLAAPAEEIPFKPGDTVQGMLELPVTW
modifications: SeuC10M31
Consider B2, for which the Average % conversion in [1] amounted to 1.3%; in [2], 0.4%; in data set [3], 0%; in data set [4], 0%; in [5] it was 11.4%; in [6], 0.6%. The Average % conversion in [7] is 46.9%; in [8], 14.6%; in data set [9], 2.2%; in data set [10], 2.9%; in data set [11], 8.2%; in data set [12], 0%. Further, the Average % conversion is given as 4.1% in data set [13], 0.7% in data set [14], 0% in [15] and 2.9% in data set [16]. The “new product at 3.12 minutes (3″-O-demethylclarithromycin) from clarithromycin” value in [14] is listed as “not observed”.

B3: M52: P450SeuC10 with T109D mutation, SEQ ID NO: 122 (protein)
chain: MKIGTTHLTRLRGLSMTELTDITGPAAQAETVAFPQDRTCPYHPPTGYDPLRDGRPLSRVTLYDGREVWLVTAQATARALLADPRLSTDRRRDGFPVPTPRFAAGRDRDLALLGLDDPEHHRQRRLLIPSFTLKRATAQRPWIQRIVDELLDAMIARGPVADLVSAFALPVPSMVICELLGVPYADHEFFEEQSRRLLRGPTGADTTDARDRLEAYLGDLIDAKAKEAEPGDGILDDLVHNRLRAGELDRSVLVSLAVILLVAGHETTANMISLGTYTLLQHPERLAELRADPSLLPAVVEELLRMLSIAEGLQRLALEDIEIDGITIRAGEGVLFSTSVINRDTAVYEDPDDLDFHRADRHHVAFGFGIHQCLGQNLARAELEIALGSLFTRLPGLRLAAPAEEIPFKPGDTVQGMLELPVTW
modifications: SeuC10M52
For B3, the Average % conversion in [1] amounted to 25.4%; in data set [2] it was 29.7%; in [3] it was 24.8%; in data set [4] it was 13%; in [5], 65%; in data set [6] it was 16.1%. The Average % conversion in data set [7] is recorded as 87.7%; in data set [8], 37.9%; in data set [9], 17.2%; in data set [10], 17.3%; in data set [11], 38.2%; in data set [12], 3.1%. Also, the Average % conversion in data set [13] came out at 0%; in data set [14], 1%; in [15], 0%; in data set [16], 26.3%.
